This is an account of results in publication PMC5424545 (Cell reports, 2017).

B2: Snf5 (natural protein, S. cerevisiae (endogenous in yeast), UniProt P18480 1-905, looked up)
chain: MNNQPQGTNSVPNSIGNIFSNIGTPSFNMAQIPQQLYQSLTPQQLQMIQQRHQQLLRSRLQQQQQQQQQTSPPPQTHQSPPPPPQQSQPIANQSATSTPPPPPAPHNLHPQIGQVPLAPAPINLPPQIAQLPLATQQQVLNKLRQQAIAKNNPQVVNAITVAQQQVQRQIEQQKGQQTAQTQLEQQRQLLVQQQQQQQLRNQIQRQQQQQFRHHVQIQQQQQKQQQQQQQHQQQQQQQQQQQQQQQQQQQQQQQQQQQQQQQQQQQQQGQIPQSQQVPQVRSMSGQPPTNVQPTIGQLPQLPKLNLPKYQTIQYDPPETKLPYPTYWSDKKADTDTLLYEQIIQRDKINKYSLIRETNGYDPFSIYGFSNKEYISRLWHTLKYYQDLKNTRMKSITSTSQKIPSASIWGNGYSGYGNGITNTTTRVIPQVEVGNRKHYLEDKLKVYKQAMNETSEQLVPIRLEFDQDRDRFFLRDTLLWNKNDKLIKIEDFVDDMLRDYRFEDATREQHIDTICQSIQEQIQEFQGNPYIELNQDRLGGDDLRIRIKLDIVVGQNQLIDQFEWDISNSDNCPEEFAESMCQELELPGEFVTAIAHSIREQVHMYHKSLALLGYNFDGSAIEDDDIRSRMLPTITLDDVYRPAAESKIFTPNLLQISAAELERLDKDKDRDTRRKRRQGRSNRRGMLALSGTSASNTSMNGVHNTVAAGNASSLPPGEILLPDIADIPRTFRTPVPSTLMPGGVDVGPSVESYELRNTTTYKSRPDRPKPVSPPCYIIDHIPGHSLLLSIKLPGKVNTKEEFAAAPNDTSSGTNAMLPSPESLKTKLNSNIRAGVTIPSIPNPIANHTVTNSPNPTLQPVIPGGAASKSVPTPSLPIAPPVAPHDSEATLLTNSNNGSSNNNTQNT
B6: Swi1 (natural protein, S. cerevisiae (endogenous in yeast), UniProt P09547 1-1314, looked up)
chain: MDFFNLNNNNNNNNTTTTTTTTNNNNTNNNNTNNNNNPANNTNNNNSTGHSSNTNNNTNNNNTNTGASGVDDFQNFFDPKPFDQNLDSNNNNSNSNNNDNNNSNTVASSTNFTSPTAVVNNAAPANVTGGKAANFIQNQSPQFNSPYDSNNSNTNLNSLSPQAILAKNSIIDSSNLPLQAQQQLYGGNNNNNSTGIANDNVITPHFITNVQSISQNSSSSTPNTNSNSTPNANQQFLPFNNSASNNGNLTSNQLISNYAASNSMDRSSSASNEFVPNTSDNNNNSNNHNMRNNSNNKTSNNNNVTAVPAATPANTNNSTSNANTVFSERAAMFAALQQKQQQRFQALQQQQQQQQNQQQQNQQPQQQQQQQQNPKFLQSQRQQQQRSILQSLNPALQEKISTELNNKQYELFMKSLIENCKKRNMPLQSIPEIGNRKINLFYLYMLVQKFGGADQVTRTQQWSMVAQRLQISDYQQLESIYFRILLPYERHMISQEGIKETQAKRIFLQQFLQELLKKVQQQQQAAALANANNNINSASSAPTPAAPGASVPATAAPGTEAGIVPVSANTPKSLNSNININVNNNNIGQQQVKKPRKQRVKKKTKKELELERKEREDFQKRQQKLLEDQQRQQKLLLETKLRQQYEIELKKLPKVYKRSIVRNYKPLINRLKHYNGYDINYISKIGEKIDSNKPIFLFAPELGAINLHALSMSLQSKNLGEINTALNTLLVTSADSNLKISLVKYPELLDSLAILGMNLLSNLSQNVVPYHRNTSDYYYEDAGSNQYYVTQHDKMVDKIFEKVNNNATLTPNDSNDEKVTILVDSLTGNQLPTPTPTEMEPDLDTECFISMQSTSPAVKQWDLLPEPIRFLPNQFPLKIHRTPYLTSLKKIKDEIDDPFTKINTRGAEDPKVLINDQLSTISMILRNISFSDNNSRIMSRNFYLKRFISDLLWLVLIHPENFTCNRKILNFKKDLVIVLSNISHLLEIASSIDCLLILILVISFGQPKLNPMASSSSFGSESLTFNEFQLQWGKYQTFGVDILAKLFSLEKPNLNYFKSILLNKNTGNNLYDRNSNNNHKDKKLLRRLLNLYNDNNKNNNNRHNLLNDVVSFLFSAIPLQQVLSQSADPSLLIDQFSPVISQSLTSILVIVQKILPLSNEVFEISENNSDSNSNNNGNKDSSFNFNKNLPFVWLSSEENIGSGLLKLSEIILNINNSTSKNTLLQQQNYSKVLLPSINISCVQLIKCLVEKSICFENCLNNDPEILKKIASIPNLFPTDLEIFQLFTNPSVDIQIINQYQLLYNLKNDILTNLE

Experiment in all cases: cross-linking
The target in the test “Snf5” is B2.
The target in test [1] is Snf2 with two FLAG tags at the C-terminus (S. cerevisiae (endogenous in yeast), UniProt P22082 1-1703).
The test “Swi1” has as its target B6.

Snf2 with two FLAG tags at the C-terminus, sequence (P22082 whole entry): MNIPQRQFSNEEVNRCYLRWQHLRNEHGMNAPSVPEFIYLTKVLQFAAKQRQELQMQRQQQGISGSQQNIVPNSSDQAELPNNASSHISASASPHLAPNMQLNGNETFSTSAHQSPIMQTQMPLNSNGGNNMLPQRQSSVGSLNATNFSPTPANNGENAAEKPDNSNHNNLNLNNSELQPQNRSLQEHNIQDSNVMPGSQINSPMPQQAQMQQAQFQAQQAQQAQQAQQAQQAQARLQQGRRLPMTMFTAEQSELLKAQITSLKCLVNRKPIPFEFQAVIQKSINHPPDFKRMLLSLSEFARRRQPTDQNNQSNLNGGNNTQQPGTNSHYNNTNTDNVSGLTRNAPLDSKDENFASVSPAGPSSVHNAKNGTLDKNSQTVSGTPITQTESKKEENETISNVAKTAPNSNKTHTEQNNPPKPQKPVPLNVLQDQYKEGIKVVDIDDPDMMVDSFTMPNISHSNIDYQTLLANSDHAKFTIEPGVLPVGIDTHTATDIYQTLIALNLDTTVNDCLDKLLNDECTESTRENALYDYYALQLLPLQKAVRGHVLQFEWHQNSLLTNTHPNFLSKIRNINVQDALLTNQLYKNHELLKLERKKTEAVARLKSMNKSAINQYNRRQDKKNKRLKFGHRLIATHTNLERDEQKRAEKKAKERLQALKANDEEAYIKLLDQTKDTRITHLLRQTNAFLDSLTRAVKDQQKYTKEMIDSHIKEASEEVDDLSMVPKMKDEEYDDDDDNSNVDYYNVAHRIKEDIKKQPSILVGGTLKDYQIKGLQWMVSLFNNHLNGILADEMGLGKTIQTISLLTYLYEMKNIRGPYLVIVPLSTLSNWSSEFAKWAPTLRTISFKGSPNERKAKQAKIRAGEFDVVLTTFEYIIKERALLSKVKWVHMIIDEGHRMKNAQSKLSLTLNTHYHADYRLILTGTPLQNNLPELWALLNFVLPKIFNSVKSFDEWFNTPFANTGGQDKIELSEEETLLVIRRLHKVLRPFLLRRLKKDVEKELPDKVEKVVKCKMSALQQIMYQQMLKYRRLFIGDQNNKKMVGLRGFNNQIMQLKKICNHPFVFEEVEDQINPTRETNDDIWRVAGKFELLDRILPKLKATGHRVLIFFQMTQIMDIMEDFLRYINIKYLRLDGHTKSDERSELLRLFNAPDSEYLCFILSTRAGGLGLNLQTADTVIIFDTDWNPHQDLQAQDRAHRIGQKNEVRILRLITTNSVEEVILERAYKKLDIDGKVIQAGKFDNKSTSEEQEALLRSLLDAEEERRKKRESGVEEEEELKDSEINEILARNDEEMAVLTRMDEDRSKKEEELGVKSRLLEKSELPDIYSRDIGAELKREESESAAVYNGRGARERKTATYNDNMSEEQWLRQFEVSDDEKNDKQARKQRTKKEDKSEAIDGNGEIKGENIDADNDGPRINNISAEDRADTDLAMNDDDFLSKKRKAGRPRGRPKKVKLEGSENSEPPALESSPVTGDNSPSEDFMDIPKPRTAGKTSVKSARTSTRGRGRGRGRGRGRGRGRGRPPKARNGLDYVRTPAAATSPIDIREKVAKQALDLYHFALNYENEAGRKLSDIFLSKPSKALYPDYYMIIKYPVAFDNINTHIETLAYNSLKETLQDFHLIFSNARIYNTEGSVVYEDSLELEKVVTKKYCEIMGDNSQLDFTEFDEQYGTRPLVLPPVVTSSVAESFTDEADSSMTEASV

B1: Swi3 (natural protein, S. cerevisiae (endogenous in yeast), UniProt P32591 1-825, looked up)
chain: MENTLGEGSTVNASVDVDQHGNDNNSDSNANAAVAGVANTDTAGEESQQQDESLKDEATVPNTRDAESEAITVTAKQQPTMQANKLDSQETPSTEESRAQNVFGQDNEDSDNLFGETESSVSNNEANTPSIPTNPVDNENNKPAIKEDSTIQDSNGDVKNMEDVKIQKEEEPENNTVIEGVKEESQPDENTKEMDEVEEDDEDDDQPMISPDNSIFGDTKSESKQLGNTSSVANTPSEIPDAHKAEQEDIIEKTESVDKKVDSGEERNEQEREIMNDHSKSANPKKTTITRVEPETFEIPQAHEIVIPSYSKWFNLEKIHSIEVQSLPEFFTNRIPSKTPEVYMRYRNFMVNSYRLNPNEYFSVTTARRNVSGDAAALFRLHKFLTKWGLINYQVDSKLLPKNIEPPLTSQYSTRHDAPRGLFPFESYKPSVQLPDMAKLKKMMNTSDSESTLYKYLKESKRKYDEITHPPSTTDDENGDKNDNGGKMNNEVSTSTSMTGDANLLEEGETSRPLKKVKILEQIDENWSKEDLQKLLKGIQEFGADWYKVAKNVGNKSPEQCILRFLQLPIEDKFLYGDGNGKGDNDNGLGPLKYAPHLPFSKSENPVLSTIAFLVGLVNPKTVQSMTQRAIQSAESIKSQKEEISDQKPIEHIKEGSEIAISSLGYRSHIFATNEERQMNFLTNELIRLQMEKLDAKLNHLKKLEKFMELERKTLERQQENLLIQRLNFNQNSSKIVNVLSKCLNLISDSNINNSSVAEKEEIRSQIDHFKSMLSKPETLSIGKNPFNKPNIETGENHNGQSISNENDVKPISIEAPQFYRYWSA
In the case of B1, the binding result (with Snf5; in test [1]) was “binds” throughout.

In the case of B2, the binding result (in test [1]; with Swi1) was “binds” in each case.

B3: Swp82 (natural protein, S. cerevisiae (endogenous in yeast), UniProt P43554 1-623, looked up)
chain: MLGEDEGNTVLEKGNNPSVKQGEVGAVFIVPKILIREHERVILKQILQILDQDELVQPPLDKFPYKKLELPKYIDELKTRDATNTSYKMIQLDAYGEKKVGSNGELFGGRHYLFNTFTFTAHMGVLLVLLQDVIKVLYQSNATHDEDEFIVQHDQILVMETSEEQTKFLAKNGVIPEESKGSFKYITARSAFVEFGASVIAGGQRIVDDYWESLAKKQNLSSHQRVFKLSTNLISKISLLRPSFQNNRISNANEISANTNNTCTISTSKFESQYPIVTEQPSAEIREAYIENFAKGEHISAIVPGQSISGTLELSAQFRVPRYHSKNSFQQALQMKAMDIPIGRHEELLAQYESQAPDGSASISLPNHIPSVNPSNKPIKRMLSSILDINVSSSKNKKSEENEMIKPMNKGQHKNNTSLNINGWKFESLPLKSAENSGKQQYYRGLPLYEKNTLLERLKQLTPNEIKELEHLHDAVFVNTGLQNVRKVRTKKWKKYWQYKAGIPIGLKRSQLDEFKNKYLKDVLAQTSVTTNFNEITNTDETITTKRVPNPNFLGNCNIKDFKPPYIYSHVNKVPQNVAGDKTAVKLDTEVKNTNANPVVATDPVAAKPDNLANFSNEVAMNN
Consider B3, for which the binding result (with Snf5; in test [1]) was “binds” each time.

B4: Snf6 (natural protein, S. cerevisiae (endogenous in yeast), UniProt P18888 1-332, looked up)
chain: MGVIKKKRSHHGKASRQQYYSGVQVGGVGSMGAINNNIPSLTSFAEENNYQYGYSGSSAGMNGRSLTYAQQQLNKQRQDFERVRLRPEQLSNIIHDESDTISFRSNLLKNFISSNDAFNMLSLTTVPCDRIEKSRLFSEKTIRYLMQKQHEMKTQAAELQEKPLTPLKYTKLIAAAEDGSRSTKDMIDAVFEQDSHLRYQPDGVVVHRDDPALVGKLRGDLREAPADYWTHAYRDVLAQYHEAKERIRQKEVTAGEAQDEASLQQQQQQDLQQQQQVVTTVASQSPHATATEKEPVPAVVDDPLENMFGDYSNEPFNTNFDDEFGDLDAVFF
B4: in the test with Snf5, the binding result is reported as “binds”.

B5: Taf14 (natural protein, S. cerevisiae (endogenous in yeast), UniProt P35189 1-244, looked up)
chain: MVATVKRTIRIKTQQHILPEVPPVENFPVRQWSIEIVLLDDEGKEIPATIFDKVIYHLHPTFANPNRTFTDPPFRIEEQGWGGFPLDISVFLLEKAGERKIPHDLNFLQESYEVEHVIQIPLNKPLLTEELAKSGSTEETTANTGTIGKRRTTTNTTAEPKAKRAKTGSASTVKGSVDLEKLAFGLTKLNEDDLVGVVQMVTDNKTPEMNVTNNVEEGEFIIDLYSLPEGLLKSLWDYVKKNTE
For the molecule B5, the binding result (with Snf5; in test [1]) was “binds” throughout.

With B6, in test [1], the binding result is recorded as “binds”.
